Positions count from the first letter of the chain named. One block for each molecule: values may come before it.
Biological target: human tau(pS422) (Homo sapiens, UniProt P10636, S739X)
Experiment: BIAcore kinetic screening and kinetic rates of humanized VH/VL combinations
Type: binding
Details: 25 °C
Method: In the following Table characteristics of the different humanized variants of the rabbit light chain variable domain in combination with the humanized heavy chain variable domains VH14 and VH20, respectively, are shown. Binding partner was human tau(pS422).
Kinetic screening was performed according to Schraeml et al. (Schraeml, M. and M. Biehl, Methods Mol. Biol. 901 (2012) 171-181) on a BIAcore 4000 instrument, mounted with a BIAcore CM5 sensor. The BIAcore 4000 instrument was under the control of the software version V1.1. A BIAcore CM5 series S chip was mounted into the instrument and was hydrodynamically addressed and preconditioned according to the manufacturer's instructions. The instrument buffer was HBS-EP buffer (10 mM HEPES (pH 7.4), 150 mM NaCl, 1 mM EDTA, 0.05% (w/v) P20). An antibody capture system was prepared on the sensor surface. A polyclonal goat anti-human antibody with human IgG-Fc specificity (Jackson Lab.) was immobilized at 30 μg/ml in 10 mM sodium acetate buffer (pH 5) to spots 1, 2, 4 and 5 in the instrument's flow cells 1, 2, 3 and 4 at 10,000 RU using NHS/EDC chemistry. In each flow cell the antibodies were captured on spot 1 and spot 5. Spot 2 and spot 4 were used as reference spots. The sensor was deactivated with a 1 M ethanolamine solution. Humanized antibody derivatives were applied at concentrations between 44 nM and 70 nM in instrument buffer supplemented with 1 mg/ml CMD (carboxymethyldextrane). The antibodies were injected at a flow rate of 30 μl/min for 2 minutes. The capture level (CL) of the surface-presented antibodies was measured in rel. response units (RU). The analytes in solution, phosphorylated human tau protein, non-phosphorylated human tau protein and the phosphorylated human tau mutant protein T422S were injected at 300 nM for 3 minutes at a flow rate of 30 μl/minute. The dissociation was monitored for 5 minutes. The capture system was regenerated by a 1 minute injection of 10 mM glycine buffer, pH 1.7 at 30 μL/minute over all flow cells. Two report points, the recorded signal shortly before the end of the analyte injection, denoted as binding late (BL) and the recorded signal shortly before the end of the dissociation time, stability late (SL), were used to characterize the kinetic screening performance. Furthermore, the dissociation rate constant kd (1/s) was calculated according to a Langmuir model and the antibody/antigen complex half-life was calculated in minutes according to the formula ln(2)/(60*kd). The molar ratio (MR) was calculated according to the formula MR=(Binding Late (RU))/(Capture level (RU))*(MW(antibody)/(MW(antigen)). In case the sensor was configured with a suitable amount of antibody ligand capture level, each antibody should be able to functionally bind at least to one analyte in solution, which is represented by a molar ratio of MR=1.0. Then, the molar ratio is also an indicator for the valence mode of analyte binding. The maximum valence can be MR=2 for an antibody binding two analytes, one with each Fab valence.
In another embodiment, kinetic rates were determined at 25° C. and 37° C. using the same experimental setup, but using multiple concentration series of each analyte in solution at 0 nM (buffer), 1.2 nM, 3.7 nM, 11.1 nM, 33.3 nM, 100 nM and 300 nM. From the concentration-dependent binding behavior the kinetic data was calculated using the BIAcore evaluation software according to the manufacturer's instructions and a Langmuir 1.1 model with RMAX global.

kd (VH14 or VH20 with VL variants): 0.00248 s⁻¹ | t/2 diss (VH14 or VH20 with VL variants): 5 min
B1: VH14 with VL12: anti-human tau(pS422) antibody; VH SEQ ID NO: 50, VL SEQ ID NO: 34 (antibody, V domains shown)
VH: QQLVESGGGLVQPGGSLRLSCAASGFSLSSNAINWVRQAPGKGLEWVGYIAVSGNTYYASWAKGRFTISRDNSKNTLYLQMNSLRAEDTAVYYCGKSNIWGPGTLVTVSS
VL: DIQMTQSPSSLSASVGDRVTITCRASQGVRTNKLAWFQQKPGQPPKRLIYSASTLQSGVPSRFSGSGSGTEFTLTISSLQPEDFATYYCLGYFDCSIADCVAFGGGTKVEIK
modifications: humanized sequence

kd (VL17 or VL19 with VH variants): 0.0019 s⁻¹ | t/2 diss (VL17 or VL19 with VH variants): 6 min
B2: VL19 with VH18: anti-human tau(pS422) antibody; VH SEQ ID NO: 52, VL SEQ ID NO: 38 (antibody, V domains shown)
VH: B1 VH with S60D, W61S, A62V, P102Q
VL: B1 VL with D1A, I2Q, Q3V, A25S, G28S, Q56D, S57F
modifications: humanized sequence

kd (VL17 or VL19 with VH variants): 0.0019 s⁻¹ | t/2 diss (VL17 or VL19 with VH variants): 6 min
B3: VL19 with VH01: anti-human tau(pS422) antibody; VH SEQ ID NO: 46, VL SEQ ID NO: 38 (antibody, V domains shown)
VH: B1 VH with P102Q
VL: B1 VL with D1A, I2Q, Q3V, A25S, G28S, Q56D, S57F
modifications: humanized sequence

kd (VH14 or VH20 with VL variants): 0.00363 s⁻¹ | t/2 diss (VH14 or VH20 with VL variants): 3 min
B4: VH14 with VL15: anti-human tau(pS422) antibody; VH SEQ ID NO: 50, VL SEQ ID NO: 35 (antibody, V domains shown)
VH: B1 VH
VL: B1 VL with C95S, C100S
modifications: humanized sequence

kd (VL17 or VL19 with VH variants): 0.00416 s⁻¹ | t/2 diss (VL17 or VL19 with VH variants): 3 min
B5: VL17 with VH04: anti-human tau(pS422) antibody; VH SEQ ID NO: 49, VL SEQ ID NO: 37 (antibody, V domains shown)
VH: QSVLESGGGLVQPGGSLRLSCAVSGFSLSSNAINWVRQAPGKGLEWVGYIAVSGNTYYASWAKGRFTISRDSTTLYLQMNSLRAEDTAVYYCGKSNIWGPGTLVTVSS
VL: B1 VL with A25S, G28S, Q56D, S57F
modifications: humanized sequence

kd (VL17 or VL19 with VH variants): 0.00063 s⁻¹ | t/2 diss (VL17 or VL19 with VH variants): 18 min
B6: VL19 with VH24: anti-human tau(pS422) antibody; VH SEQ ID NO: 56, VL SEQ ID NO: 38 (antibody, V domains shown)
VH: EVQLLESGGGLVQPGGSLRLSCAASGFSLSSNAINWVRQAPGKGLEWVGYIAVSGNTYYADSVKGRFTISKDNSKNTVYLQMNSLRAEDTAVYYCGKSNIWGQGTLVTVSS
VL: B1 VL with D1A, I2Q, Q3V, A25S, G28S, Q56D, S57F
modifications: humanized sequence

kd (VL17 or VL19 with VH variants): 0.0023 s⁻¹ | t/2 diss (VL17 or VL19 with VH variants): 5 min
B7: VL17 with VH01: anti-human tau(pS422) antibody; VH SEQ ID NO: 46, VL SEQ ID NO: 37 (antibody, V domains shown)
VH: B1 VH with P102Q
VL: B1 VL with A25S, G28S, Q56D, S57F
modifications: humanized sequence

kd (VL17 or VL19 with VH variants): 0.00393 s⁻¹ | t/2 diss (VL17 or VL19 with VH variants): 3 min
B8: VL17 with VH03: anti-human tau(pS422) antibody; VH SEQ ID NO: 48, VL SEQ ID NO: 37 (antibody, V domains shown)
VH: B1 VH with Q2S, L3V, V4L, A23V
VL: B1 VL with A25S, G28S, Q56D, S57F
modifications: humanized sequence

kd (VL17 or VL19 with VH variants): 0.0021 s⁻¹ | t/2 diss (VL17 or VL19 with VH variants): 6 min
B9: VL19 with VH22: anti-human tau(pS422) antibody; VH SEQ ID NO: 54, VL SEQ ID NO: 38 (antibody, V domains shown)
VH: B6 VH with K71R, V78L
VL: B1 VL with D1A, I2Q, Q3V, A25S, G28S, Q56D, S57F
modifications: humanized sequence

kd (VL17 or VL19 with VH variants): 0.0023 s⁻¹ | t/2 diss (VL17 or VL19 with VH variants): 5 min
B10: VL17 with VH18: anti-human tau(pS422) antibody; VH SEQ ID NO: 52, VL SEQ ID NO: 37 (antibody, V domains shown)
VH: B1 VH with S60D, W61S, A62V, P102Q
VL: B1 VL with A25S, G28S, Q56D, S57F
modifications: humanized sequence

kd (VL17 or VL19 with VH variants): 0.00371 s⁻¹ | t/2 diss (VL17 or VL19 with VH variants): 3 min
B11: VL17 with VH02: anti-human tau(pS422) antibody; VH SEQ ID NO: 47, VL SEQ ID NO: 37 (antibody, V domains shown)
VH: B1 VH with Q2S, L3V, V4L
VL: B1 VL with A25S, G28S, Q56D, S57F
modifications: humanized sequence

kd (VL17 or VL19 with VH variants): 0.00079 s⁻¹ | t/2 diss (VL17 or VL19 with VH variants): 15 min
B12: VL17 with VH24: anti-human tau(pS422) antibody; VH SEQ ID NO: 56, VL SEQ ID NO: 37 (antibody, V domains shown)
VH: B6 VH
VL: B1 VL with A25S, G28S, Q56D, S57F
modifications: humanized sequence

kd (VL17 or VL19 with VH variants): 0.00057 s⁻¹ | t/2 diss (VL17 or VL19 with VH variants): 20 min
B13: VL19 with VH23: anti-human tau(pS422) antibody; VH SEQ ID NO: 55, VL SEQ ID NO: 38 (antibody, V domains shown)
VH: B6 VH with L4V, A24V
VL: B1 VL with D1A, I2Q, Q3V, A25S, G28S, Q56D, S57F
modifications: humanized sequence

kd (VL17 or VL19 with VH variants): 0.002 s⁻¹ | t/2 diss (VL17 or VL19 with VH variants): 6 min
B14: VL17 with VH22: anti-human tau(pS422) antibody; VH SEQ ID NO: 54, VL SEQ ID NO: 37 (antibody, V domains shown)
VH: B6 VH with K71R, V78L
VL: B1 VL with A25S, G28S, Q56D, S57F
modifications: humanized sequence

kd (VL17 or VL19 with VH variants): 0.0007 s⁻¹ | t/2 diss (VL17 or VL19 with VH variants): 17 min
B15: VL17 with VH23: anti-human tau(pS422) antibody; VH SEQ ID NO: 55, VL SEQ ID NO: 37 (antibody, V domains shown)
VH: B6 VH with L4V, A24V
VL: B1 VL with A25S, G28S, Q56D, S57F
modifications: humanized sequence

kd (VL17 or VL19 with VH variants): 0.000498 s⁻¹ | t/2 diss (VL17 or VL19 with VH variants): 23 min
B16: VL17 with VH00: anti-human tau(pS422) antibody; VH SEQ ID NO: 11, VL SEQ ID NO: 37 (antibody, listed as Oryctolagus cuniculus, V domains shown)
VH: QSVEESGGRLVTPGTPLTLTCTVSGFSLSSNAINWVRQAPGKGLEWIGYIAVSGNTYYASWAKGRFTISKASTTVDLKMTSPTAEDTGTYFCGKSNIWGPGTLVTVSL
VL: B1 VL with A25S, G28S, Q56D, S57F
modifications: humanized sequence

kd (VL17 or VL19 with VH variants): 0.002 s⁻¹ | t/2 diss (VL17 or VL19 with VH variants): 6 min
B17: VL19 with VH19: anti-human tau(pS422) antibody; VH SEQ ID NO: 53, VL SEQ ID NO: 38 (antibody, V domains shown)
VH: B1 VH with S60D, W61S, A62V, R70K, P102Q
VL: B1 VL with D1A, I2Q, Q3V, A25S, G28S, Q56D, S57F
modifications: humanized sequence
